# Results taken from paper PMC9482650, “Quantitative fragmentomics allow affinity mapping of interactomes” (Nature Communications, 2022).
# T1: LNX2_1, Q8N448
# T1 sequence (Q8N448 228-328, limits assumed, looked up): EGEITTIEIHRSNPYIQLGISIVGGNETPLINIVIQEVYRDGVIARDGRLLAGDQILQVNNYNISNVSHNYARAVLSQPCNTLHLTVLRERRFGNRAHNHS
# Molecular target: T1, LNX2_1, Q8N448
# Assay: holdup assay
# Parameters: key: below the threshold = too weak to quantify, mostly under pKd 3.1 to 4
# Conditions: plain residues with an end cap or a label only (N-terminal biotin on a linker: ttds)
row,pKd,Binder
1,below the threshold,"SGGKRKETLV [NET1, Q7Z628]"

# Molecular target: O00233
# Assay: holdup assay
# Parameters: key: below the threshold = too weak to quantify, mostly under pKd 3.1 to 4
# Conditions: plain residues with an end cap or a label only (N-terminal biotin on a linker: ttds)
row,pKd,Binder
1,below the threshold,"PSRDRKETSI [RALBP1, Q15311]"
2,below the threshold,"KLVIKTETTV [RASSF6, Q6ZTQ3]"

# Molecular target: O00560
# Assay: holdup assay
# Parameters: key: below the threshold = too weak to quantify, mostly under pKd 3.1 to 4
# Conditions: plain residues with an end cap or a label only (N-terminal biotin on a linker: ttds)
row,pKd,Binder
1,below the threshold,"PSRDRKETSI [RALBP1, Q15311]"
2,below the threshold,"KLVIKTETTV [RASSF6, Q6ZTQ3]"

# Molecular target: O15021
# Assay: holdup assay
# Parameters: key: below the threshold = too weak to quantify, mostly under pKd 3.1 to 4
# Conditions: plain residues with an end cap or a label only (N-terminal biotin on a linker: ttds)
row,pKd,Binder
1,below the threshold,"PSRDRKETSI [RALBP1, Q15311]"
2,below the threshold,"KLVIKTETTV [RASSF6, Q6ZTQ3]"

# Molecular target: O43166
# Assay: holdup assay
# Parameters: key: below the threshold = too weak to quantify, mostly under pKd 3.1 to 4
# Conditions: plain residues with an end cap or a label only (N-terminal biotin on a linker: ttds)
row,pKd,Binder
1,below the threshold,"PSRDRKETSI [RALBP1, Q15311]"
2,below the threshold,"KLVIKTETTV [RASSF6, Q6ZTQ3]"

# Molecular target: O60759
# Assay: holdup assay
# Parameters: key: below the threshold = too weak to quantify, mostly under pKd 3.1 to 4
# Conditions: plain residues with an end cap or a label only (N-terminal biotin on a linker: ttds)
row,pKd,Binder
1,below the threshold,"PSRDRKETSI [RALBP1, Q15311]"
2,below the threshold,"KLVIKTETTV [RASSF6, Q6ZTQ3]"

# Molecular target: O75970
# Assay: holdup assay
# Parameters: key: below the threshold = too weak to quantify, mostly under pKd 3.1 to 4
# Conditions: plain residues with an end cap or a label only (N-terminal biotin on a linker: ttds)
row,pKd,Binder
1,below the threshold,"PSRDRKETSI [RALBP1, Q15311]"
2,below the threshold,"KLVIKTETTV [RASSF6, Q6ZTQ3]"

# Molecular target: PTPN13_2, Q12923
# Assay: holdup assay
# Parameters: key: below the threshold = too weak to quantify, mostly under pKd 3.1 to 4
# Conditions: plain residues with an end cap or a label only (N-terminal biotin on a linker: ttds)
# Chain of PTPN13_2, Q12923 (Q12923 1363-1462): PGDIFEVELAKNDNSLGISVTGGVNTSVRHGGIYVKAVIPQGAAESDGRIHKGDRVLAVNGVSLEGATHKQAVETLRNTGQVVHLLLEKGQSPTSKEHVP
row,pKd,Binder
1,3.79,"PSRDRKETSI [RALBP1, Q15311]"
2,below the threshold,"KLVIKTETTV [RASSF6, Q6ZTQ3]"
3,below the threshold,"SGGKRKETLV [NET1, Q7Z628]"

# Molecular target: Q12923
# Assay: holdup assay
# Parameters: key: below the threshold = too weak to quantify, mostly under pKd 3.1 to 4
# Conditions: plain residues with an end cap or a label only (N-terminal biotin on a linker: ttds)
row,pKd,Binder
1,below the threshold,"PSRDRKETSI [RALBP1, Q15311]"
2,below the threshold,"KLVIKTETTV [RASSF6, Q6ZTQ3]"

# Molecular target: Q13009
# Assay: holdup assay
# Parameters: key: below the threshold = too weak to quantify, mostly under pKd 3.1 to 4
# Conditions: plain residues with an end cap or a label only (N-terminal biotin on a linker: ttds)
row,pKd,Binder
1,below the threshold,"PSRDRKETSI [RALBP1, Q15311]"
2,below the threshold,"KLVIKTETTV [RASSF6, Q6ZTQ3]"

# Molecular target: Q13368
# Assay: holdup assay
# Parameters: key: below the threshold = too weak to quantify, mostly under pKd 3.1 to 4
# Conditions: plain residues with an end cap or a label only (N-terminal biotin on a linker: ttds)
row,pKd,Binder
1,below the threshold,"PSRDRKETSI [RALBP1, Q15311]"
2,below the threshold,"KLVIKTETTV [RASSF6, Q6ZTQ3]"

# Molecular target: Q5TCQ9
# Assay: holdup assay
# Parameters: key: below the threshold = too weak to quantify, mostly under pKd 3.1 to 4
# Conditions: plain residues with an end cap or a label only (N-terminal biotin on a linker: ttds)
row,pKd,Binder
1,below the threshold,"PSRDRKETSI [RALBP1, Q15311]"
2,below the threshold,"KLVIKTETTV [RASSF6, Q6ZTQ3]"

# Molecular target: Q6ZWJ1
# Assay: holdup assay
# Parameters: key: below the threshold = too weak to quantify, mostly under pKd 3.1 to 4
# Conditions: plain residues with an end cap or a label only (N-terminal biotin on a linker: ttds)
row,pKd,Binder
1,below the threshold,"PSRDRKETSI [RALBP1, Q15311]"
2,below the threshold,"KLVIKTETTV [RASSF6, Q6ZTQ3]"

# Molecular target: Q8IUC4
# Assay: holdup assay
# Parameters: key: below the threshold = too weak to quantify, mostly under pKd 3.1 to 4
# Conditions: plain residues with an end cap or a label only (N-terminal biotin on a linker: ttds)
row,pKd,Binder
1,below the threshold,"PSRDRKETSI [RALBP1, Q15311]"
2,below the threshold,"KLVIKTETTV [RASSF6, Q6ZTQ3]"

# Molecular target: Q96FS4
# Assay: holdup assay
# Parameters: key: below the threshold = too weak to quantify, mostly under pKd 3.1 to 4
# Conditions: plain residues with an end cap or a label only (N-terminal biotin on a linker: ttds)
row,pKd,Binder
1,below the threshold,"PSRDRKETSI [RALBP1, Q15311]"
2,below the threshold,"KLVIKTETTV [RASSF6, Q6ZTQ3]"

# Molecular target: Q96HC4
# Assay: holdup assay
# Parameters: key: below the threshold = too weak to quantify, mostly under pKd 3.1 to 4
# Conditions: plain residues with an end cap or a label only (N-terminal biotin on a linker: ttds)
row,pKd,Binder
1,below the threshold,"PSRDRKETSI [RALBP1, Q15311]"
2,below the threshold,"KLVIKTETTV [RASSF6, Q6ZTQ3]"

# Molecular target: Q96JB8
# Assay: holdup assay
# Parameters: key: below the threshold = too weak to quantify, mostly under pKd 3.1 to 4
# Conditions: plain residues with an end cap or a label only (N-terminal biotin on a linker: ttds)
row,pKd,Binder
1,below the threshold,"PSRDRKETSI [RALBP1, Q15311]"
2,below the threshold,"KLVIKTETTV [RASSF6, Q6ZTQ3]"

# Molecular target: Q96JY6
# Assay: holdup assay
# Parameters: key: below the threshold = too weak to quantify, mostly under pKd 3.1 to 4
# Conditions: plain residues with an end cap or a label only (N-terminal biotin on a linker: ttds)
row,pKd,Binder
1,below the threshold,"PSRDRKETSI [RALBP1, Q15311]"
2,below the threshold,"KLVIKTETTV [RASSF6, Q6ZTQ3]"

# Molecular target: Q9C0E4
# Assay: holdup assay
# Parameters: key: below the threshold = too weak to quantify, mostly under pKd 3.1 to 4
# Conditions: plain residues with an end cap or a label only (N-terminal biotin on a linker: ttds)
row,pKd,Binder
1,below the threshold,"PSRDRKETSI [RALBP1, Q15311]"
2,below the threshold,"KLVIKTETTV [RASSF6, Q6ZTQ3]"

# Molecular target: Q9H190
# Assay: holdup assay
# Parameters: key: below the threshold = too weak to quantify, mostly under pKd 3.1 to 4
# Conditions: plain residues with an end cap or a label only (N-terminal biotin on a linker: ttds)
row,pKd,Binder
1,below the threshold,"PSRDRKETSI [RALBP1, Q15311]"
2,below the threshold,"KLVIKTETTV [RASSF6, Q6ZTQ3]"

# Molecular target: Q9NPB6
# Assay: holdup assay
# Parameters: key: below the threshold = too weak to quantify, mostly under pKd 3.1 to 4
# Conditions: plain residues with an end cap or a label only (N-terminal biotin on a linker: ttds)
row,pKd,Binder
1,below the threshold,"PSRDRKETSI [RALBP1, Q15311]"
2,below the threshold,"KLVIKTETTV [RASSF6, Q6ZTQ3]"

# Molecular target: Q9NR12
# Assay: holdup assay
# Parameters: key: below the threshold = too weak to quantify, mostly under pKd 3.1 to 4
# Conditions: plain residues with an end cap or a label only (N-terminal biotin on a linker: ttds)
row,pKd,Binder
1,below the threshold,"PSRDRKETSI [RALBP1, Q15311]"
2,below the threshold,"KLVIKTETTV [RASSF6, Q6ZTQ3]"

# Molecular target: Q9P227
# Assay: holdup assay
# Parameters: key: below the threshold = too weak to quantify, mostly under pKd 3.1 to 4
# Conditions: plain residues with an end cap or a label only (N-terminal biotin on a linker: ttds)
row,pKd,Binder
1,below the threshold,"PSRDRKETSI [RALBP1, Q15311]"

# Molecular target: Q9ULJ8
# Assay: holdup assay
# Parameters: key: below the threshold = too weak to quantify, mostly under pKd 3.1 to 4
# Conditions: plain residues with an end cap or a label only (N-terminal biotin on a linker: ttds)
row,pKd,Binder
1,below the threshold,"PSRDRKETSI [RALBP1, Q15311]"
2,below the threshold,"KLVIKTETTV [RASSF6, Q6ZTQ3]"

# Molecular target: Q9UMS6
# Assay: holdup assay
# Parameters: key: below the threshold = too weak to quantify, mostly under pKd 3.1 to 4
# Conditions: plain residues with an end cap or a label only (N-terminal biotin on a linker: ttds)
row,pKd,Binder
1,below the threshold,"PSRDRKETSI [RALBP1, Q15311]"
2,below the threshold,"KLVIKTETTV [RASSF6, Q6ZTQ3]"

# Molecular target: Q9Y3R0
# Assay: holdup assay
# Parameters: key: below the threshold = too weak to quantify, mostly under pKd 3.1 to 4
# Conditions: plain residues with an end cap or a label only (N-terminal biotin on a linker: ttds)
row,pKd,Binder
1,below the threshold,"PSRDRKETSI [RALBP1, Q15311]"
2,below the threshold,"KLVIKTETTV [RASSF6, Q6ZTQ3]"
